# Reference: PMC8524982
# Tested on: T1, His6-OsnR (Corynebacterium glutamicum), ORF:93dbb295
# T1 sequence: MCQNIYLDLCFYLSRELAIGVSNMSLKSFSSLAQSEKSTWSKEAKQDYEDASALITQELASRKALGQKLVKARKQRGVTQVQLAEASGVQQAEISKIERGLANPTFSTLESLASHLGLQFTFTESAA
# Assay: EMSA
# Settings: 20 mM HEPES pH 7.4, 2.5 mM MgCl2, 75 mM KCl, 0.5 mM EDTA, 2 mM DTT, 10% glycerol, 1 ug poly d(I-C), 100 ng/ul BSA; 30 ng DNA in 20 ul, 30 C, 30 min; 5% PAGE …
row,Sequence,binding
1,ACCGCTTCTAAGCACCCAACTCGCCAAAACTAGGACAACAGGTCGCCGCAGACAGTCGACCGCTTAAAACGCCACACAGCACCCCACTTCACATAACCCCAAGTCGGAAACAAAAGCCCCCAACCTGCACAGATGTCAACTATTTCAACCAGCCAGAAACTATCTCCAAAAGCTAATAAAACCCTTGCACTGACAAATAAGGCGACCTACCATGACTCTGTTTCCAACACATAAAAAGGATAAAAAATGTCACTTTCAGTCGTCGAGGCG (double strand) [cg0404 promoter],no binding
2,CAAGCGTGGGGATTCCTGGCTCGATGCTCATGCTTCACTTCCTTATCTTTTGAAACCATGTGCAGCTGTTTTTCTCTTCATTTTTCTCTTCATACACTGACACAGTTCAACTCAATCAAATAGTCAACTATGCAAGGTAGTCGACTATGTGGCATAGTCGCCATAGTTGAGTTTTATTCATGGCTTTTAGCTAGGCGACTTTAGTTGAGGGCTTTTAGTTGAGGGCTTCCCAGCAGGGATGGTTAAGGAGAATTCAGTGAACCAACAGAGTAAAAAGTGGCTCGTACCGACACTGGT (double strand) [cg0026 promoter],binds
3,GGCGAGGCCACGTTCAATCTTGCTTATTTCTGCCTGTTGGACTCCAGAAGCTTCAGCAAGTTGAACTTGGGTGACTCCTCGTTGTTTCCGAGCCTTGACTAGTTTTTGGCCAAGAGCTTTTCGTGAGGCGAGTTCTTGAGTGATTAGCGCGGAAGCGTCCTCGTAATCTTG (double strand) [osnR ORF (+110 to +286)],no binding
4,GGCTGCTCAGACATAAGATGTGCTCCTAATTTAGAAATCGGATGTGGGCTGGACTGGGAAGGCAACTAACTGGTGCTTTGTCGTCCACGTATCTCAACGCATATGACTATAAAAAGCTTCCCAAGTACCAGTTCAGTCTATAATTCGCGGTGTTATTGAGATGGTTTGAGGCTGGAAAGCTTCGATTGCAGCCAGTTGTTGAGTACTTCAGAGGCGTGATCTCTGGCGGGTTTCCTTGAGAGGAAAATATCGTGGCGAGCGTTGTCGATGAT (double strand) [mtr promoter],no binding
5,TTTGGTGGTGGGCAATGCTGCGACCATCTTTATGAATCTCATTGGCTGCCGGGAAGGCCGCGACCCCTTGCTGCTCATCGCGGTTCTCACGTTCCCGCTGTATTGGCTGCTCATGAGCATTGCAGCGTTGAAAGGCACGTGGCAATTGATCACGCGACCATCCTATTGGGAGAAAACTGCCCACGGATTGGAGGCGTAAGCGGTGCCCATCGTCAAACCAATGCCGGCACTG (double strand) [cg0165 promoter],binds
